Results: the nanobody polyreactivity screen of Harvey et al. (2022)

Test: yeast display, Sf9 membrane polyspecificity reagent, FACS + sequencing; frameworks hold sequencing errors
Method in brief: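 Synthetic nanobody libraries on Saccharomyces cerevisiae BJ5465 were galactose-induced for 36–48 hours, stained 1 hour at 4 °C with 10% biotinylated, detergent-solubilized Sf9 membrane reagent and enriched on streptavidin microbeads. FACS then separated cells into low and high (top ~1%) gates by anti-HA (expression) and streptavidin (reagent binding) fluorescence. Genes were colony-PCR amplified, MiSeq 2 × 250 sequenced and CDR-length filtered. A clone's polyreactivity label is that of its gate of origin.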

Row | Sequence | polyreactivity (PSR sort gate)
1 | QVQLVESGGGLVQAGGSLRLSCDASGSIFRSYAMGWYRQAPGKERELVASITRSSGSTYYADSVKGRFTISRDNAKNTVYLQMNSLKPEDTAVYYCAAYTGVRGYYYWGQGTQVTVSS | high polyreactivity
2 | QVQLVESGGGLVQAGGSLRLSCAASGRIFSSYAMGWYRQAPWKERELVAAISGSGGRTYYADSVKGRFTISRDNAKNTVYLQMNSLKPEDTAVYYCNARRRSPYSTGVAYDYWGQGTQVTVSS | high polyreactivity
3 | QVQLVESGGGLVQAGGSLRLSCAASGRIFYYYTMAWYRQAPGKERELVAAISWGGVNTDYADSVKGRFTISRDNAKNTVYLQMNSLKPEDTAVYYCAAGRWSVGTYDYWGQGTQVTVSS | low polyreactivity
4 | QVQLVESGGGLVQARRRLRLSCAASGRTFRENFMGWYRQEPGKEREFVAISSSGASTYYADSVKGRFTISRDNAKNTVYLQMNSLKPEDTAVYYCAAKLYGAPYSKYYYWGHGTQVTVSS | high polyreactivity
5 | QVQLVESGGGLVQAGGRLRISCAASGRIFPYNAMGWYIQAPGKERELVAAINWSGGSTYYADSVKGRFTISRDNAKNTVYLQMNSLKPEDTAVYYCAVKTVRSSSRNYWGQGTQVTVSS | high polyreactivity
6 | QVQLVESGGGLVQAGGSLRLSCAASGRTFFKIAMGWYRQAPGKERELVASISSRSGTTYYADSVKGRFTISRDNAKNTVYLQMNSLKPEDTAVYYCAASRNRYSYGYWGQGTQVTVSS | high polyreactivity
7 | QVQLVESGGGLVQAGGSLRLSCAASGRTFYIYALGWYRQAPGKERELVAAISWGSGSTYYADSVKGRFTISRDNAKNTVYLQMNSLKPEDTAVYYCAAEYAYPSEWTYDYWGQGTQVTVSS | low polyreactivity
8 | QVQLVESGGGLVQAGGSLRLSCAASGFIFSSNAMGGYRQAPGTERELVATIDRDGGITYADSVKGRFTISRDNAKTTVYIQMNSLKPEDTEVYYCAADPSSYGRFTYDYWGQGTQVTVSS | low polyreactivity
9 | QVQLVESVGGLVQAGGSLRFTCAASGGTFRVNAMGWYRQAPGKEREFVAAISGSGSSTYYADSVKGRFTISRDNAKNTVYLQMNSLKPEDTAVYYCAARSGVGGDNDYWGQGTQVTVSS | low polyreactivity
10 | QVQLVESGGGLVQAGGSLRLSCAASGSTLVKYAMGWYRQAPGKERELVAAISWSGGRTYYADSVKGRFTISRDNAKNTVYLQMNSLKPEDTAVYYCNAEFRGRPPSFAIKYDYWGQGTQVTVSS | high polyreactivity
11 | QVQLVESGGGLVQAGGSLRLSCAASGIIFSGYVMGWYGQAPGKERELVAAISRSGGRTFYADSVKGRFTISRDNAMNTVYLQMNSLKPEDTAVYYCAKVPSYVRGHGYQYDHWGQGTQVTVSS | high polyreactivity
12 | QVQLVESGGGLVQAGGSLRLSCAASGITLYGNVMGWYRQAPGKERELVAAISGGSTFYADSVKGRFTISRDNAKNTVYLQMNSLKPEDTAVYYCSAEGYGYGSNVPYYYWGQGTQVTVSS | low polyreactivity
13 | QVQLVESGGGLVQAGGSLRLSCAASGNTFSSYAMGWYRQAPGKERELVAAISRRGGSTYYADSVKGRFTISRDNAKNTVYLQMNSLKPEDTAVYYCAADGTGFRYLRYDYWGQGTQVTVSS | high polyreactivity
14 | QVQLVESGGGLVQAGGSLRLSCAASGSIFYFNAMGWYRQAPGKERELVAAISTSGGSTYADSVKGRFTISRDNAKNTVYLQMNSLKPEDTAVYYCAADFLTSRSRTFDYWGQGTQVTVSS | low polyreactivity
15 | QVQLVESGGGLVQAGGSLRLSCAASGSTFGVNAMGWSRQAPGKERELVAVITRSGGSTYYADSVKGRFTISRDNAKNTVFLQMNSLIPEDTAVYYCAKSGVVDWGQGTQVTVSS | low polyreactivity
16 | QVQLVESGGGLVQAGGSLRLSSAASGRIFVGYAKGWYIQAPGKERELVAGIRYSGGSTYYADSVKGRFTISRDNAKNTVYLQMNSLKPEDTAVYYCATQVWHYAGRPNYKYDYWGQGTQVTVSS | low polyreactivity
17 | QVQLVESGGGLVQAGGRLRLSSAASGFTLVLNAMGWYIPAPGKERELVAAIRRSAGSTYYADSVKGRFTISRDNAKNTVYLQMNRLKPEDTAVYYCAAGFLWAKYAYGHWGQATQVTVSS | low polyreactivity
18 | QVQLVESGGGLGQAGGSLRLSCAASGSIFAVNAMGWYRPAPGKERELVAGINSSGGSTHYADSVKGRFTISRDNAKNTVYFQMNSLKPEDTAVYYCAADWLRPAYYAVASLVKSDYWGQGTQVTVSS | low polyreactivity
19 | HVQLVESGGGLVQAGGSLRLSCAASGGIFSYYAMGWFRQAPGKERELVAAISSRGTNTHYADSVKGRFTISRDNAKNTVDLQMNSLKPEDTAVYYCAADKRASPIYDWGQGTQVTVSS | high polyreactivity
20 | QVQLVESGGGLVQAGGSLRLSCAASGITLYRYAMGWYRQAPGKERELVADISSGGGTTYYADSVKGRFTISRDNAKNTVYLQMNSLKPEDTAVYYCAADYGFRYPLYDYWGQGTQVTVSS | low polyreactivity
21 | QVQLLESGGGLVQAGGSLRLSCAASGSIFGLYAMGWYRQAPGKERELVAALTWSSGNTYYADSVKGRFTISRDNAKNTVYLQMNSLKPEDTAVYYCSARVYRYGAMDYWGQGTQVTVSS | high polyreactivity
22 | QVQLVESGGGLVQAGGSLRLSCAASGYIFFTNAMGWYRQAPGKERELVAAISTIDGSTYYADSVKGRFTISRDNAKNTVYLQMNSLKPEDTAVYYCATDTPFISSLAYDYWGQGTQVTVSS | low polyreactivity
